From US20220002407A1

B1: bispecific antibody AB23P7 (anti-CD19×CD3) (bispecific antibody)
chain: QVQLQESGPGLVKPSQTLSLTCTVSGGSISTSGMGVGWIRQHPGKGLEWIGHIWWDDDKRYNPALKSRVTISVDTSKNQFSLKLSSVTAADTAVYYCARMELWSYYFDYWGQGTLVTVSSGGGGSGGGGSGGGGSEIVLTQSPATLSLSPGERATLSCSASSSVSYMHWYQQKPGQAPRLLIYDTSKLASGIPARFSGSGSGTDFTLTISSLEPEDVAVYYCFQGSVYPFTFGQGTKLEIKGGGGGGSGGGGSGGGGSSSSSKAPPPSEVQLLESGGGLVQPGGSLKLSCAASGFTFNTYAMNWVRQAPGKGLEWVARIRSKYNNYATYYADSVKDRFTISRDDSKNTAYLQMNNLKTEDTAVYYCVRHGNFGNSYVSWFAYWGQGTLVTVSSGGGGSGGGGSGGGGSELVVTQEPSLTVSPGGTVTLTCRSSTGAVTTSNYANWVQQKPGQAPRGLIGGTNKRAPGTPARFSGSLLGGKAALTLSGVQPEDEAEYYCALWYSNLWVFGGGTKLTVLDKTHTCPPCPAPEAAGGPSVFLFPPKPKDQLMISRTPEVTCVVVDVSHEDPEVKFNWYVDGVEVHNAKTKPREEQYASTYRVVSVLTVLHQDWLNGKEYKCKVSNKALPASIEKTISKAKGQPREPQVYTLPPSRDELTKNQVSLTCLVKGFYPSDIAVEWESNGQPENNYKTTPPVLDSDGSFFLYSKLTVDKSRWQQGNVFSCSVLHEALHNHYTQKSLSLSPG
modifications: Homodimer: two identical copies of this chain, joined by covalent (hinge disulfide) bonds; one copy is given.
B2: bispecific antibody AB23P10 (anti-CD19×CD3) (bispecific antibody)
chain: QVQLQESGPALVKPTQTLTLTCTFSGFSLSTSGMGVGWIRQPPGKALEWLAHIWWDDDKRYNPALKSRLTISKDTSKNQVFLTMTNMDPVDTATYYCARMELWSYYFDYWGQGTLVTVSSGGGGSGGGGSGGGGSENVLTQSPATLSVTPGEKATLSCSASSSVSYMHWYQQKPGQAPRLLIYDTSKLASGIPARFSGSGSGTDHTLTISSLEAEDVAVYYCFQGSVYPFTFGQGTKLEIKGGGGGGSGGGGSGGGGSSSSSKAPPPSEVQLLESGGGLVQPGGSLKLSCAASGFTFNTYAMNWVRQAPGKGLEWVARIRSKYNNYATYYADSVKDRFTISRDDSKNTAYLQMNNLKTEDTAVYYCVRHGNFGNSYVSWFAYWGQGTLVTVSSGGGGSGGGGSGGGGSELVVTQEPSLTVSPGGTVTLTCRSSTGAVTTSNYANWVQQKPGQAPRGLIGGTNKRAPGTPARFSGSLLGGKAALTLSGVQPEDEAEYYCALWYSNLWVFGGGTKLTVLDKTHTCPPCPAPEAAGGPSVFLFPPKPKDQLMISRTPEVTCVVVDVSHEDPEVKFNWYVDGVEVHNAKTKPREEQYASTYRVVSVLTVLHQDWLNGKEYKCKVSNKALPASIEKTISKAKGQPREPQVYTLPPSRDELTKNQVSLTCLVKGFYPSDIAVEWESNGQPENNYKTTPPVLDSDGSFFLYSKLTVDKSRWQQGNVFSCSVLHEALHNHYTQKSLSLSPG
modifications: Homodimer: two identical copies of this chain, joined by covalent (hinge disulfide) bonds; one copy is given.
B3: bispecific antibody AB23P8 (anti-CD19×CD3) (bispecific antibody)
chain: QVTLRESGPALVKPTQTLTLTCTFSGFSLSTSGMGVGWIRQPPGKALEWLAHIWWDDDKRYNPALKSRLTISKDTSKNQVFLTMTNMDPVDTATYYCARMELWSYYFDYWGQGTTVTVSSGGGGSGGGGSGGGGSENVLTQSPATLSVTPGEKATITCRASQSVSYMHWYQQKPGQAPRLLIYDASNRASGVPSRFSGSGSGTDHTLTISSLEAEDAATYYCFQGSVYPFTFGQGTKLEIKGGGGGGSGGGGSGGGGSSSSSKAPPPSEVQLLESGGGLVQPGGSLKLSCAASGFTFNTYAMNWVRQAPGKGLEWVARIRSKYNNYATYYADSVKDRFTISRDDSKNTAYLQMNNLKTEDTAVYYCVRHGNFGNSYVSWFAYWGQGTLVTVSSGGGGSGGGGSGGGGSELVVTQEPSLTVSPGGTVTLTCRSSTGAVTTSNYANWVQQKPGQAPRGLIGGTNKRAPGTPARFSGSLLGGKAALTLSGVQPEDEAEYYCALWYSNLWVFGGGTKLTVLDKTHTCPPCPAPEAAGGPSVFLFPPKPKDQLMISRTPEVTCVVVDVSHEDPEVKFNWYVDGVEVHNAKTKPREEQYASTYRVVSVLTVLHQDWLNGKEYKCKVSNKALPASIEKTISKAKGQPREPQVYTLPPSRDELTKNQVSLTCLVKGFYPSDIAVEWESNGQPENNYKTTPPVLDSDGSFFLYSKLTVDKSRWQQGNVFSCSVLHEALHNHYTQKSLSLSPG
modifications: Homodimer: two identical copies of this chain, joined by covalent (hinge disulfide) bonds; one copy is given.
B4: bispecific antibody AB23P9 (anti-CD19×CD3) (bispecific antibody)
chain: QVQLQESGPGLVKPTQTLSLTCTVSGGSISTSGMGVGWIRQHPGKGLEWIGHIWWDDDKRYNPALKSRVTISVDTSKNQVFLKLSSVTAADTAVYYCARMELWSYYFDYWGQGTTVTVSSGGGGSGGGGSGGGGSEIVLTQSPATLSLSPGERATITCRASQSVSYMHWYQQKPGQAPRLLIYDASNRASGVPSRFSGSGSGTDFTLTISSLEPEDAATYYCFQGSVYPFTFGQGTKLEIKGGGGGGSGGGGSGGGGSSSSSKAPPPSEVQLLESGGGLVQPGGSLKLSCAASGFTFNTYAMNWVRQAPGKGLEWVARIRSKYNNYATYYADSVKDRFTISRDDSKNTAYLQMNNLKTEDTAVYYCVRHGNFGNSYVSWFAYWGQGTLVTVSSGGGGSGGGGSGGGGSELVVTQEPSLTVSPGGTVTLTCRSSTGAVTTSNYANWVQQKPGQAPRGLIGGTNKRAPGTPARFSGSLLGGKAALTLSGVQPEDEAEYYCALWYSNLWVFGGGTKLTVLDKTHTCPPCPAPEAAGGPSVFLFPPKPKDQLMISRTPEVTCVVVDVSHEDPEVKFNWYVDGVEVHNAKTKPREEQYASTYRVVSVLTVLHQDWLNGKEYKCKVSNKALPASIEKTISKAKGQPREPQVYTLPPSRDELTKNQVSLTCLVKGFYPSDIAVEWESNGQPENNYKTTPPVLDSDGSFFLYSKLTVDKSRWQQGNVFSCSVLHEALHNHYTQKSLSLSPG
modifications: Homodimer: two identical copies of this chain, joined by covalent (hinge disulfide) bonds; one copy is given.

Tests used:
[1] = biological target: CD3 on human T cells (expanded CIK effector cells) (human) (UniProt P07766); assay: flow cytometry on expanded CD3-positive human T cells (CIK)
Chain of CD3 on human T cells (expanded CIK effector cells) (human) (P07766 23-207, chain 1 of 3): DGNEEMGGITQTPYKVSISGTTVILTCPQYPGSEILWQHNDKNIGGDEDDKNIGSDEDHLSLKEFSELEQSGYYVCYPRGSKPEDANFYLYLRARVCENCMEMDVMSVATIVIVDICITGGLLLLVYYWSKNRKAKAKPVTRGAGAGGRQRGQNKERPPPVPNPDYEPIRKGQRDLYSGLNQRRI
Chain of CD3 on human T cells (expanded CIK effector cells) (human) (P04234 22-171, chain 2 of 3, further chain): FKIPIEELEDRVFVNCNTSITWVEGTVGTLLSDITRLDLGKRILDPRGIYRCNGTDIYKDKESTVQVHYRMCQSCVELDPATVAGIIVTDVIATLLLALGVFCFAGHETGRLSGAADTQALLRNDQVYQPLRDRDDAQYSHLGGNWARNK
Chain of CD3 on human T cells (expanded CIK effector cells) (human) (P09693 23-182, chain 3 of 3, further chain): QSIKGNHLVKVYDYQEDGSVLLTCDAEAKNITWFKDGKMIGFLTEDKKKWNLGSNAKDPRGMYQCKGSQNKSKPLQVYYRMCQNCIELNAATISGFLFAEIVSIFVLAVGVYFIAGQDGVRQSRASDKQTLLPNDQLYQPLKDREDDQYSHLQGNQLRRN

[2] = biological target: CD19 on CD19-positive human tumor cells (Raji, Raji-Luc, NALM6, Reh) (human) (UniProt P15391); assay: flow cytometry on CD19-positive Raji cells, AF647 goat anti-human IgG detection
Chain of CD19 on CD19-positive human tumor cells (Raji, Raji-Luc, NALM6, Reh) (human) (P15391 20-556): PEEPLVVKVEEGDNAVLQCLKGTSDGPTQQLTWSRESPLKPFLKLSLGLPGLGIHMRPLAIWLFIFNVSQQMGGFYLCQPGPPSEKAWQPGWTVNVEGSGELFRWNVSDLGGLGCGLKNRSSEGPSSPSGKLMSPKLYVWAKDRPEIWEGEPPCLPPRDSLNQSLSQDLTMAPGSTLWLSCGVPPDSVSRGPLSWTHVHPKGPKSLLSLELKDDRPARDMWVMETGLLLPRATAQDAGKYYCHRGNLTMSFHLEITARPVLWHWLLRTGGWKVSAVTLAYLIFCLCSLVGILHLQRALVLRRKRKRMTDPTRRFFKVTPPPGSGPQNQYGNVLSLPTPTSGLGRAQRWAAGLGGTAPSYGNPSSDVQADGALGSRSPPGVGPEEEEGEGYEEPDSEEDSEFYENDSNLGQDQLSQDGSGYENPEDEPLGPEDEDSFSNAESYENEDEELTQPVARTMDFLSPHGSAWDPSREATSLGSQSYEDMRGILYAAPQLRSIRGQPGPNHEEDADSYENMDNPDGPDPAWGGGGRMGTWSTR

[3] = biological target: CD19 on CD19-positive human tumor cells (Raji, Raji-Luc, NALM6, Reh) (human) (UniProt P15391); assay: cell-based or functional assay
[4] = biological target: CD3 on the membrane of CIK cells (T cells) of a cynomolgus monkey (cynomolgus monkey) (UniProt Q95LI5); assay: flow cytometry on cynomolgus monkey CIK (T) cells
Chain of CD3 on the membrane of CIK cells (T cells) of a cynomolgus monkey (cynomolgus monkey) (Q95LI5 22-198, chain 1 of 3): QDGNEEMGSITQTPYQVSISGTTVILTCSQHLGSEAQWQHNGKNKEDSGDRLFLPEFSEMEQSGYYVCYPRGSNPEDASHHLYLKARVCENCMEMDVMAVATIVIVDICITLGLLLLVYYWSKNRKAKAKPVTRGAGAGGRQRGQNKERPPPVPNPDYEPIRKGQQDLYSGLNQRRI
Chain of CD3 on the membrane of CIK cells (T cells) of a cynomolgus monkey (cynomolgus monkey) (Q95LI8 22-171, chain 2 of 3, further chain): as the sequence (P04234 22-171, chain 2 of 3, further chain) above, with I5V, N15K, I20V, S32T, D33N, I34N, T64A, S74N, V83L, H141R counted along it
Chain of CD3 on the membrane of CIK cells (T cells) of a cynomolgus monkey (cynomolgus monkey) (Q95LI7 23-181, chain 3 of 3, further chain): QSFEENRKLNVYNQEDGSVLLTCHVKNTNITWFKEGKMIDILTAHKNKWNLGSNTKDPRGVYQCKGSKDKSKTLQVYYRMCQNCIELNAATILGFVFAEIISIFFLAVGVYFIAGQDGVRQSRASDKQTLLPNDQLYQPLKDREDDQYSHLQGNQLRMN

Binder | EC50 [1] | EC50 [2] | EC50 of activation of NFAT-RE luciferase reporter Jurkat T cells in the presence of Raji target cells [3] | EC50 to mediate CIK to kill different tumor cells (Reh) [3] | EC50 to mediate CIK to kill tumor cells (Raji-LUC) [3] | EC50 to mediate CIK to kill tumor cells (Raji-LUC, second row without label) [3] | EC50 to mediate PBMCs to kill tumor cells (Raji-LUC) [3] | EC50 to mediate PBMCs to kill tumor cells (Raji-LUC, second row without label) [3] | EC50 [4] | EC50 to mediate CIK to kill different tumor cells (NALM6) [3] | EC50 to mediate PBMCs to kill tumor cells (Raji-LUC, third row without label) [3]
B1 | 15700 pM | 1390 pM | 1080 pM | 1.71 pM | 0.699 pM | 0.202 pM | 1.23 pM | 1.25 pM | 5500 pM |  | 
B2 | 32400 pM | 2680 pM | 709 pM | 1.64 pM | 0.128 pM | 0.483 pM | 0.946 pM | 1.25 pM | 5500 pM | 4.4 pM | 4.18 pM
B3 | 16700 pM | 1920 pM | 1120 pM |  | 0.586 pM |  | 1.02 pM |  |  |  | 
B4 | 49500 pM | 2600 pM | 853 pM |  | 0.148 pM |  | 1.01 pM |  |  |  | 
